Results on six substances are retold here after publication PMC3316669.

Assay [1] deals with TorD with N-terminal His-tag (E. coli) (UniProt P36662). Kind of assay: SPR; quantitative, equilibrium response against pre-protein concentration; His-tagged REMP held on a Ni-NTA chip to 500 RU, 20 µl/min, 25°C, reference surface subtracted; Scatchard plot and Langmuir 1:1 fit; 10 mM HEPES, 150 mM NaCl, 50 µM EDTA, 0.005% P20, pH 7.4.
The target of assay [2] is ssTorA-SBP signal peptide (Escherichia coli) (UniProt P33225). Kind of assay: SPR. Conditions: cited from earlier work.
In assay [3] the target is TorA signal peptide 10-26 (Escherichia coli) (UniProt P33225). Kind of assay: ITC. The note with it: cited from earlier work.
Assay [4] has as its target MBP-ssTorA signal peptide (Escherichia coli) (UniProt P33225). Kind of assay: ITC. Conditions: cited from earlier work.

What is called Kd is the equilibrium constant for the complex coming apart. One may read the stoichiometry N as the number of molecules, sites or subunits per partner or assembly.

Chain of TorD (P36662 whole entry): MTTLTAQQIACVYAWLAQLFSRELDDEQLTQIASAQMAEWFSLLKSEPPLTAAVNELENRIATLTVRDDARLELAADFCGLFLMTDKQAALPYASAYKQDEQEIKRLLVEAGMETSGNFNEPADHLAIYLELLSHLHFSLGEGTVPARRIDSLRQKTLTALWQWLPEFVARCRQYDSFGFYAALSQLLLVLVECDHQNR

Substance ssTorA(KR)-GFP (domain or fragment) showed an equilibrium dissociation constant (Kd) in assay [1] of 2900 nM.
With ssTorA(KKK)-GFP (domain or fragment), in assay [1], the Kd turned out to be 4900 nM.
In turn, ssTorA(KK)-GFP (domain or fragment) showed a Kd in assay [1] of 540 nM.
In turn, ssTorA(RK)-GFP (domain or fragment) gave a dissociation constant (Kd) in assay [1] of 3600 nM.
In assay [1], “ssTorA-GFP (signal sequence of TorA fused to GFP) (domain or fragment)” gave a dissociation constant Kd of 330 nM and a stoichiometry N of 1.
With TorD (from UniProt P36662), the Kd in assay [2] was 3800 nM; in assay [3], 1700 nM; in assay [4], 59 nM.
